# Test results as given in patent US20180148485A1 (Pieris, published 2018).
# Where two headings read alike, the source gives them in different places.
# B1: CD137-binding lipocalin mutein of SEQ ID NO: 26 (designed binder)
# chain: QDSTSDLIPAPPLSKVPLQQNFQDNQFHGKWYVVGQAGNIRLREDKDPIKMMATIYELKEDKSYDVTMVKFDDKKCMYDIWTFVPGSQPGEFTLGKIKSFPGHTSSLVRVVSTNYNQHAMVFFKFVFQNREEFYITLYGRTKELTSELKENFIRFSKSLGLPENHIVFPVPIDQCIDG
# B2: GPC3-binding lipocalin mutein of SEQ ID NO: 10 (designed binder)
# chain: QDSTSDLIPAPPLSKVPLQQNFQDNQFQGKWYVVGRAGNVGLREDKDPPKMWATIYELKEDKSYDVTNVRFARKKCTYSIGTFVPGSQPGEFTLGQIKSEPGGTANLVRVVSTNYNQHAMVFFKEVYQNREIFFIILYGRTKELTSELKENFIRFSKSLGLPENHIVFPVPIDQCIDG
# notes: hNGAL-based lipocalin mutein; also called GPC3 lipocalin mutein
# Key:
# [1] = target: T1, recombinant human CD137-Fc fusion protein (#838-4B-100, R&D Systems) (human, UniProt Q07011 24-186); assay: ELISA, CD137-Fc coated, as described in Example 3
# T1 construct: also called Fc-fusion of human CD137; not shown: Fc part of the bought fusion protein, not described
# Text: The data was fitted with a 1:1 binding model with EC50 value and the maximum signal as free parameters, and a slope that was fixed to unity.
# [2] = target: T1, recombinant human CD137-Fc fusion …; assay: ELISA, CD137-Fc coated, as described in Example 3; remark: listed apart in the source
# [3] = target: T1, recombinant human CD137-Fc fusion …; assay: SPR, CD137-Fc captured by anti-human Fc antibody on CM5 chip, 1:1 model
# Description: Binding affinities of the CD137-binding lipocalin mutein and the bispecific polypeptides of SEQ ID NO: 46 and SEQ ID NO: 47 to recombinant human CD137-Fc fusion protein (#838-4B-100, R&D Systems) were determined by Surface Plasmon Resonance using a Biacore T200 instrument (GE Healthcare) in analogy to Example 6. Prior to the SPR affinity assay, a CM5 sensor chip was derivatized with an anti-human Fc antibody using the Human Antibody Capture Kit (GE Healthcare # BR-1008-39) according to the manufacturer's instructions.
# Four different concentrations (1000 nM, 200 nM, 40 nM and 8 nM) of the bispecific polypeptides were prepared in running buffer (10 mM HEPES, 150 mM NaCl, 0.05% v/v Surfactant P20, 3 mM EDTA, pH 7.4 (GE Healthcare)) and applied to the chip surface. Applying a flow rate of 30 μL/min, the sample contact time was 180 s and dissociation time was 600 s. All measurements were performed at 25° C. […] Prior to the protein measurements three regeneration cycles were performed for conditioning purposes. Data were evaluated with Biacore T200 Evaluation software (V 2.0). Double referencing was used and the 1:1 Binding model was used to fit the raw data.
# [4] = target: T1, recombinant human CD137-Fc fusion …; assay: SPR, biotinylated CD137-Fc captured on CAP chip, in analogy to Example 6
# Description: Biotinlated CD137-Fc was immobilized on sensor chip and binding of the fusion polypeptides and lipocalin mutein was analyzed at different concentrations.
# [5] = target: T2, recombinant human GPC3 (R&D Systems #2119-GP-050/CF) (human, UniProt P51654 25-559); assay: ELISA, GPC3 coated, anti-NGAL-HRP detection
# T2 construct: also called Glypican-3; biotinylated human GPC3
# T2 sequence (P51654 25-559 limits assumed): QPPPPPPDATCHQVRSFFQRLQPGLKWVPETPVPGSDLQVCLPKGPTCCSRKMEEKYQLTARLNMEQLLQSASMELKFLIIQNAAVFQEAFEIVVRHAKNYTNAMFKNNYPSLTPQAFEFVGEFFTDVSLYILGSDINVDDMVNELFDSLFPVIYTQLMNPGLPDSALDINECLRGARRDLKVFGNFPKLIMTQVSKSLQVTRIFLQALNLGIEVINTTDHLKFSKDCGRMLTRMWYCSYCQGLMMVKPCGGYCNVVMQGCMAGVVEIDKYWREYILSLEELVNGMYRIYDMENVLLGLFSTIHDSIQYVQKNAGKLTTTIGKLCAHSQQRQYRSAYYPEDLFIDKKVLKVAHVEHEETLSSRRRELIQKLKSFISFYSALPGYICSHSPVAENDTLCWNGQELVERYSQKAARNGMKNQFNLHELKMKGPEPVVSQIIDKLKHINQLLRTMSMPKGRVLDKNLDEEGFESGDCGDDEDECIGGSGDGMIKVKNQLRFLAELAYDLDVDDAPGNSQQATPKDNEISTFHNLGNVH
# Description: The target was dissolved in PBS (1 μg/mL) and coated overnight on microtiter plates at 4° C. The plate was washed after each incubation step with […] PBS supplemented with 0.1% (v/v) Tween 20 (PBS-T) five times. The plates were blocked with 2% BSA (w/v) in PBS-T for 1 h at room temperature and subsequently washed. Different concentrations of the lipocalin mutein (SEQ ID NO: 10) or the fusion polypeptides were added to the wells and incubated for 1 h at room temperature, followed by a wash step. Bound fusion protein or lipocalin mutein was detected after incubation with 1:1000 diluted anti-human NGAL antibody conjugated to HRP in PBS-T supplemented with 2% (w/v) BSA (PBS-TB). After an additional wash step, fluorogenic HRP substrate (QuantaBlu, Thermo) was added to each well and the fluorescence intensity was detected using a fluorescence microplate reader.
# The result of the experiment is depicted in FIG. 2, together with the fit curves resulting from a 1:1 binding sigmoidal fit, where the EC50 value and the maximum signal were free parameters, and the slope was fixed to unity.
# [6] = target: T2, recombinant human GPC3 (R&D Systems …); assay: ELISA, GPC3 coated, anti-NGAL-HRP detection; remark: listed apart in the source
# Text: GPC3 was coated on a microtiter plate and the tested molecules were titrated. […] The data was fitted with a 1:1 binding model with EC50 value and the maximum signal as free parameters, and a slope that was fixed to unity.
# [7] = target: T2, recombinant human GPC3 (R&D Systems …); assay: ELISA, GPC3 coated, anti-NGAL-HRP detection; remark: listed apart in the source
# Text: GPC3 was coated on a microtiter plate and the tested molecules were titrated. Bound molecules were detected via an HRP-labeled anti-human NGAL-specific antibody as described in Example 12. The data was fitted with a 1:1 binding model with EC50 value and the maximum signal as free parameters, and a slope that was fixed to unity.
# [8] = target: T2, recombinant human GPC3 (R&D Systems …); assay: SPR, biotinylated GPC3 captured on CAP chip, 1:1 model, apparent affinity
# Description: Biotinlated GPC3 was immobilized on a sensor chip and binding of the fusion polypeptides and lipocalin mutein was analyzed at different concentrations.
# [9] = target: T2, recombinant human GPC3 (R&D Systems …); assay: SPR (Biacore T200), biotinylated GPC3 captured on CAP chip, 1:1 model, apparent affinity
# Description: In the SPR affinity assay, biotinylated GPC3 was captured on a sensor chip (“CAP chip”) using the Biotin CAPture Kit (GE Healthcare): sensor Chip CAP is pre-immobilized with an ssDNA oligo. Undiluted Biotin CAPture Reagent (streptavidin conjugated with the complementary ss-DNA oligo) was applied at a flow rate of 2 μL/min for 300 s. For analysis of the lipocalin mutein, biotinylated GPC3 at a concentration of 1 μg/mL was used and 0.25 μg/mL of biotinylated GPC3 for the fusions proteins. The biotinylated GPC3 was applied for 300 s at a flow rate of 5 μL/min. GPC3 was biotinylated by incubation with EZ-Link® NHS-PEG4-Biotin (5-fold molar excess (Thermo Scientific)) during two hours at room temperature. The excess of non-reacted biotin reagent was removed by loading the reaction mixture onto a Zeba™ Spin Desalting Plate (Thermo Scientific). The reference channel was loaded with Biotin CAPture Reagent only.
# Applying a flow rate of 30 μL/min, the sample contact time was 180 s and dissociation time was 1200 s. All measurements were performed at 25° C. […] Prior to the protein measurements three regeneration cycles were performed for conditioning purposes. Data were evaluated with Biacore T200 Evaluation software (V 2.0). Double referencing was used and the 1:1 Binding model was used to fit the raw data.
Binder,EC50 [1],EC50 [2],Kd [3],Kd [4],EC50 [5],EC50 [6],EC50 [7],Kd [8],Kd [9]
B1,0.43 nM,0.28 nM,0.0023 nM,2.3 nM,,,,,
B2,,,,,0.55 nM,0.32 nM,0.55 nM,0.033 nM,0.012 nM
